Test results as given in PMC4367279, “Comparisons with Amyloid-β Reveal an Aspartate Residue That Stabilizes Fibrils of the Aortic Amyloid Peptide Medin*” (The Journal of Biological Chemistry, 2015).

Target: medin D25N, recombinant (human)
Experiment: thioflavin T fluorescence (aggregation kinetics); 20 uM medin, 20 uM ThT, 30 C, no agitation, 96-well plate, triplicate; 20 mM sodium phosphate, 150 mM NaCl, pH 7.4; sigmoidal fit, slope 1/tau is the rate of polymerization; self-assembly into ThT-responsive aggregates

medin D25N, recombinant (peptide)
rate of polymerization (ThT fit): 1.43 h⁻¹
